Laboratory results published in publication PMC7613103 (Science signaling, 2020).
One block for each molecule: values may come before it.

Key:
Cys118 = Cys118 (UniProt position 118, LLTIKCLLIHP); test: chemical modification; conditions: 10 °C; 100 mM NaCl; Free reduced enzyme, 14.4 μM, no ubiquitin or other ligand
Cys95 = Cys95 (UniProt position 95, ANGEICVNVLK); test: chemical modification; conditions: 10 °C; 100 mM NaCl; Free reduced enzyme, 14.4 μM, no ubiquitin or other ligand
[1] = molecular target: UBE2S^UBC (UBC domain of UBE2S, residues 1-156) (human) (UniProt Q16763); test: cross-linking + SEC-MALS
[2] = molecular target: T1, UBE2S (full-length, untagged, purified) (human), Q16763; test: cross-linking + SEC-MALS; conditions: remark: other sources report otherwise
T1 chain: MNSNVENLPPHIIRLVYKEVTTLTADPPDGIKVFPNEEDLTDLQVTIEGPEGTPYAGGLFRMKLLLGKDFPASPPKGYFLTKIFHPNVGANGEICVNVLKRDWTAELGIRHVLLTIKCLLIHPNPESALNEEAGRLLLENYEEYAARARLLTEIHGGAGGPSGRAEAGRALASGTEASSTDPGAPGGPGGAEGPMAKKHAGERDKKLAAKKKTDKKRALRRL

cross-linking = molecular target: the molecule itself; test: cross-linking

Molecule: Ubiquitin-conjugating enzyme E2 S (UBE2S) C95S variant (Homo sapiens; C95S)
pKa (Cys118): 9.4 ± 0.1

Molecule: Ubiquitin-conjugating enzyme E2 S (UBE2S) C118S variant (Homo sapiens; C118S)
pKa (Cys95): 6.4 ± 0.2

stoichiometry N [1]: 2
Molecule: UBE2S^UBC (UBC domain of UBE2S, residues 1-156) (from UniProt Q16763 1-156) (domain or fragment)

stoichiometry N [2]: 2
B1: UBE2S (full-length, untagged, purified), Q16763 1-222 (enzyme)
chain: MNSNVENLPPHIIRLVYKEVTTLTADPPDGIKVFPNEEDLTDLQVTIEGPEGTPYAGGLFRMKLLLGKDFPASPPKGYFLTKIFHPNVGANGEICVNVLKRDWTAELGIRHVLLTIKCLLIHPNPESALNEEAGRLLLENYEEYAARARLLTEIHGGAGGPSGRAEAGRALASGTEASSTDPGAPGGPGGAEGPMAKKHAGERDKKLAAKKKTDKKRALRRL

B2: UBE2S C95S (full-length) (enzyme)
chain: MNSNVENLPPHIIRLVYKEVTTLTADPPDGIKVFPNEEDLTDLQVTIEGPEGTPYAGGLFRMKLLLGKDFPASPPKGYFLTKIFHPNVGANGEISVNVLKRDWTAELGIRHVLLTIKCLLIHPNPESALNEEAGRLLLENYEEYAARARLLTEIHGGAGGPSGRAEAGRALASGTEASSTDPGAPGGPGGAEGPMAKKHAGERDKKLAAKKKTDKKRALRRL
binding result (cross-linking): binds
